# Assay: soluble on expression in E. coli; label from the status in PepcDB or PDB records
row,Sequence,soluble on expression in E. coli
1,MWKMLSSEYSILLIDDDADVLDAYTQLLEQSGYRVFACNNPFEAQAWIQPDWPGIVLSDVCMPGCSGIDLMMLFHQDDQQLPILLITGHGDVPMAVDAVKKGAWDFLQKPVDPGKLLSLVEEALRQRQSIIARRQYCQQTLQVELIGRSEWINQYRRRLQQLSETDIAVWLYGAPGTGRMTGARYLHQFGRNAQGEFVYRELTPDNAPQLNDFIALAQGGTLVLSHPEHLTREQQYHLVQLQSQEHRPFRLIGIGDTSLVELAASNHIIAELYYCFAMTQIACLPLTQRPDDIEPLFRHYLCKACQRLNHPVPEVGKEMLKEMMRRMWPNNVRELANAAELFTVGVLPLAETANPLMHVGTPTPLDRRVEDAERQIITEALNIHQGRINEVAEYLQIPRKKLYLRMKKYGLSKEHYKI,not soluble
2,MWLIILWNAKPDTPLFNFKDEVIKYKTYEPFESSIKRVNTTIKNGSKGKTLTEMINGYRADNDIRDEICNFNILKNKIRDMKNQQGNTMESYF,not soluble
3,MWRCIVVISSDRRPEMPFKPLVTAGIESLLNTFLYRSPALKTARSRLLGKVLRVEVKGFSTSLILVFSERQVDVLGEWAGDADCTVIAYASVLPKLRDRQQLAALIRSGELEVQGDIQVVQNFVALADLAEFDPAELLAPYTGDIAAEGISKALRGGAKFLHHGIKRQQCYVAEAITEEWRMAPGPLEVAWFAEETAAVERAVDALTKRLEKLEAK,not soluble
4,MWRSCLRLRDGGRRLLNRPAGGPSASMSPGPTIPSPARAYAPPTERKRFYQNVSITQGEGGFEINLDHRKLKTPQAKLFTVPSEALAIAVATEWDSQQDTIKYYTMHLTTLCNTSLDNPTQRNKDQLIRAAVKFLDTDTICYRVEEPETLVELQRNEWDPIIEWAEKRYGVEISSSTSIMGPSIPAKTREVLVSHLASYNTWALQGIEFVAAQLKSMVLTLGLIDLRLTVEQAVLLSRLEEEYQIQKWGNIEWAHDYELQELRARTAAGTLFIHLCSESTTVKHKLLKE,not soluble
5,MWSEKHKSGKVNFVERYKHPYTGKWCRASVLMEKDTPRIRKEAQKYLDEKISEILTSLTTTDAYLLDVMNEWWEHHQKSLKSTSVRSLDFRIRELRNLIDPEVMIAKITTKYLQSIIDKIPGSYDKRKRARQLLKQTFDYAIALEYVSINPVISTQLAKPVKTIKDFEDVAQKFLEKDELKRLLDEMYRRKGSIKMAYLAEFMSLNGCRIGEALAIQPDNIKNDIIEIHGTLDYTSNGYRNAIKTTPKTNSSWRETLITKREKEIIQDILKINALEKNTNPNYKDMGYIFISRNGVPIQDNALNTSIRAANKRLEKPIQKELTSHIFRHTLVSRLAENKVPLKTIMDRVGHADSKTTQQIYTHVTKSMKNEVVDILNRL,not soluble
6,MWTATACSIDSSPSMWNCAEVMDSTRSELLQSTPEAEDGNIEYKLKLVNPSQYRFEHLVTQMKWRLQEGRGEAVYQIGVEDNGLLVGLAEEEMRASLKTLHRMAEKVGADITVLREREVDYDSDVPRKITEVLVRKVPDNQQFLDLRVAVLGNVDSGKSTLLGVLTQGELDNGRGRARLNLFRHLHEIQSGRTSSISFEILGFNSKGEVVNYSDSRTAEEICESSSKMITFIDLAGHHKYLHTTIFGLTSYCPDCALLLVSANTGIAGTTREHLGLALALKVPFFIVVSKVDLCAKTTVERTVRQLERVLKQPGCHKVPMLVTSEDDAVTAAQQFAQSPNVTPIFTLSSVSGESLDLLKVFLNILPPLTNSKEQEELMQQLTEFQVDEIYTVPEVGTVVGGTLSSGICREGDQLVVGPTDDGCFLELRVCSIQRNRSACRVLRAGQAATLALGDFDRALLRKGMVMVSPEMNPTICSVFEAEIVLLFHATTFRRGFQVTVHVGNVRQTAVVEKIHAKDKLRTGEKAVVRFRFLKHPEYLKVGAKLLFREGVTKGIGHVTDVQAITAGEAQATMGF,soluble
7,MYALAFDLKIEILKKEYGEPYNKAYDDLRQELELLGFEWTQGSVYVNYSKENTLAQVYKAINKLSQIEWFKKSVRDIRAFKVEDFSDFTEIVKS,not soluble
8,MYDKILKMLTDTIKQFSDAPIYLDNVMQSSEPFYFVLSVEESMTDNVGQNVQNKAYNVDIALVDSKKDKQLVKSLTESCGAFFNVLNLDGNELFPEDYQTFKTDGIQHINFNVAFPQLIEWSEK,not soluble
9,MYFKMITSAPWVLYPEIGEDPSKKWIFREPKISDGDGIYSLIADCPPLDMNSSYCNFLQSTHFSKTSILVEHKGDIAGFISGYQKPDEQDVLFIWQVAVSPRFRGNGLAFRMLKELLEREALSEVKSVETTITEDNQASWALFKKLDAMNGNHGQVSTFLDEKAHFKGKHDTEFLYRIPLK,not soluble
10,MYGEWGMGNILMMFHVYLVQGFRSEHGPVKDFSFERSSRSMLERSEQQIRAASSLEELLQIAHSEDWKLWRCRLKLKSLASMDSRSASHRSTRFAATFYDL,not soluble
11,MYINVVKCMWKQIKHRFEGYPSRMYVARKIIDLGFRIDRNGKIYCDDVEISDVALARAVGVDRRTVRATANTILEDEKLRGIFENMMPAGALLRDAAGELDFGVVEIEADARNPGILAAAARLIADKGISIRQAHAGDPELDETPRLTIITETPIPGGLLKDFLKIDGVKRVSIY,soluble
12,MYKAIIMPVDVFEMELSDKAVRHAEFLAQDDGVIHLLHVLPGSASLSLHRFAADVRRFEEHLQHEAEERLQTMVSHFTIDPSRIKQHVRFGSVRDEVNELAEELGADVVVIGSRNPSISTHLLGSNASSVIRHANLPVLVVR,not soluble
13,MYKFVLIASLLVALCMAAPPRQESEAERIEREEYEKYQNENAQYSFNSSVDDKINDGQISRNEEREGGTVRGSYSYFDGFVKRRVEYIADKDGYRVLKDEIEDVGNGPSFNPDGIANVEGSMIGKYSIKLDKADDDKHYKDIHALEHHHHHH,not soluble
14,MYLCEEHFKEYFERKVARTIEKYKLASKDERILVAVSGGKDSAVTAYVLKKLGYKIECLHLNLGIGEYSEKSEIYAKKQCEFIGAPLNIIRVKELLGYGIGEVRTSRPTCSYCGLTKRYIMNKFAYDNGFDAVATGHNLDDEASFLMNNLLHWNTEYLAKGGPLLPGEGKFVKKIKPLYELTEREVVAYAIAVGLEYIVEECPYARGATTLDMKEVLNELEEKRPGTKFNFVRGFLRKKKLFEPEVKGKDLKECKICGMPASGEICSFCKFWKLGKPLTFKIK,not soluble
15,MYLRKILELYRDSRFKYVVVDTPPTGLTLRILSLPRLYTFWLESLIGIRERIVSLRYVIARSIGREPEMDDPVLDKLREMQDRYAKLSNDLVERERTSFAIVATPEPLPVYEARKTVEFLESMGAKPSIIVVNRILPAEIASRLGVLEVQSKALNELRTRVCRKPCVLVEIPMVETVPSSLEAVLNLVERSR,not soluble
16,MYLYIETLKQRLDAINQLRVDRALAAMGPAFQQVYSLLPTLLHYHHPLMPGYLDGNVPKGICLYTPDETQRHYLNELELYRGMSVQDPPKGELPITGVYTMGSTSSVGQSCSSDLDIWVCHQSWLDSEERQLLQRKCSLLESWAASLGVEVSFFLIDENRFRHNESGSLGGEDCGSTQHILLLDEFYRTAVRLAGKRILWNMVPCDEEEHYDDYVMTLYAQGVLTPNEWLDLGGLSSLSAEEYFGASLWQLYKSIDSPYKAVLKTLLLEAYSWEYPNPRLLAKDIKQRLHDGEIVSFGLDPYCMMLERVTEYLTAIEDFTRLDLVRRCFYLKVCEKLSRERACVGWRREVLSQLVKEWEWDDARLAMLDNRANWKIDQVREAHNELLDAMMQSYRNLIRFARRNNLSVSASPQDIGVLTRKLYAAFEALPGKVTLVNPQISPDLSEPNLTFIYVPPGRANRSGWYLYNRAPNIESIISHQPLEYNRYLNKLVAWAWFNGLLTSRTRLYIKGNGVVDLPKLQEMVADVSHHFPLRLPAPTPKALYSPCEIRHLAIIVNLEYDPTAAFRNQVVHFDFRKLDVFSFGENQNCLVGSVDLLYRNSWNEVRTLHFNGEQSMIEALKTILGKMHQDAAPPDSVEVFCYSQHLRGLIRTRVQQLVSECIELRLSSTRQETGRFKALRVSGQTWGLFFERLNVSVQKLENAIEFYGAISHNKLHGLSVQVETNHVKLPAVVDGFASEGIIQFFFEETQDENGFNIYILDESNRVEVYHHCEGSKEELVRDVSRFYSSSHDRFTYGSSFINFNLPQFYQIVKVDGREQVIPFRTKSIGN,not soluble
17,MYPNISDCGVIGDTRTAALVNSNGSIDYCSLPYFDSPTVFAALLDERKGGYFSLKPAEAFSSRREYLPDTCILCTSFTTRNGKAALYDFMPHQDDKTRERTQGIHRCIRVDEGRVKFTLTLKLLTFQQTGAIVAAATTSLPESIGGKRNWDYRFTWIRNASFTLKAFFALSHTSEADTFIRWLHDTYRKNGSRGFSQKLNAFVQRFDTEILDASLLIMPLVDFLPVTDQRIQGTIEACQTHLMDNGFIRRYRADDGLEEDEGGFLLCNFWMIECLALSGKSAEAEKLLGITMAAANDLGLFSEEYDPYSREMLGNFPQAFSHIGYINAAATLIDSKLPLANPLEHHHHHH,not soluble
18,MYPVDLHMHTVASTHAYSTLSDYIAQAKQKGIKLFAITDHGPDMEDAPHHWHFINMRIWPRVVDGVGILRGIEANIKNVDGEIDCSGKMFDSLDLIIAGFHEPVFAPHDKATNTQAMIATIASGNVHIISHPGNPKYEIDVKAVAEAAAKHQVALEINNSSFLHSRKGSEDNCREVAAAVRDAGGWVALGSDSHTAFTMGEFEECLKILDAVDFPPERILNVSPRRLLNFLESRGMAPIAEFADL,soluble
19,MYQLTVFYDGTCPLCAKEMRALKQQDKNNVIKTIDIYSEVFSEYSNIDPKAANTVLHALNQKGELILGLDVTYLAWKLVGKGWLYAPLRWPGIKVIADWCYLHFAKNRYRVSYWLTGVSRCNKTSCSKLEHHHHHH,not soluble
20,MYTAIPQSGSPFPGSVQDPGLHVWRVEKLKPVPVAQENQGVFFSGDSYLVLHNGPEEVSHLHLWIGQQSSRDEQGACAVLAVQLDDYLGGRPVQHREVQGNESDLFMSYFPRGLKYQEGGVESGFKHVVPNEVVVQRLYQVKGAKNIRATERALNWDSFNTGDCFILDLGQNIFAWCGGKSNILERNKARDLALAIRDSERQGKAQVEIVTDGEEPAEMIQVLGPKPALKEGNPEEDLTADKANAQAAALYKVSDATGQMNLTKVADSSPFALELLISDDCFVLDNGLCGKIYIWKGRKANEKERQAALQVAEGFISRMQYAPNTQVEILPQGRESPIFKQFFKDWK,soluble
21,MYTAIVNLKTYREATGANFTRFMEKFEPVQGKFELIFSPSLLDLEKAAKCGKFRFFAQHVDAEPYGAYTGHVPMDMMIDLGITGSILNHSERRLPRDTIINTLKKASKLDFTIVLCVENAEEAKYFREYEPDFIAYEPRDLIGGDVSVSTAKPEIIEDIVKIYEGTGTSVLVGAGIKTGEDVRRSIGLGARGILVASGVVKSADPTKSLNSLIELK,not soluble
22,MYVDPKVTIETVKTLNTYLKTRAELRSTDHVVIAEKLDDNDKKATTRLKILTKFDEGRFGAIYMVQNESAVDNDVVSVGNSRFIMKTALRQLSSHQIVYRLSREITVLKTLWGQGNDPPPRVPPILHQGKILGVPFYVTSIFDVNLEKCREQMGGGTFCVQSAFHIAQEIFMALKFMHRRQLVHRDVKPTNIALSYQNRDQWYLIDYGDAISVGKKTPISPPDGVTLPFLSLEAHDLLVTSSYSSFQQDLESWFYVIVDLLKPLPWKDNNRIDKVALAKRDFMSRLPNNLTNLPSQILDIGQILKTESPYSEISKKLVEGLASVKTSSSEKWNPEWYDRSATRNLREKKIKNQPRSRESAEAEATAVQTTPTGSTELQNDRRDKSVYVSTIVTKVVDNRKKVSSSNSPTTVSTNKTAVIEDEEDVKKNSPIQKQQDRSVYFNDFPVAAVAQPETGKKKKYRYKMRKQ,not soluble

# Source: the DeepSol protein solubility set
